Results as given in the DeepSol protein solubility set.

Assay: soluble on expression in E. coli; label from the status in PepcDB or PDB records

Sequence | soluble on expression in E. coli
IQQFNYGVRLVMSDNMQKILEYPNKTLSLGEKYYTGKTIGEIWGYKTIGIAQTQEEMDKHLANGGKPNWGSAWGAGDIMYANIDGKDGVNSGANTVNDHGDLKIIGNSTPRYNFGLTLDGSWKGLDFSLFIQGVMKRDYMLDGPYFWGANGGMWQSCVFKEHLDYWRPEGDPLGANTNAYYPKPYFSSNKNQKTQSGYLQNAAYCRLKNAQIGYTLPKAWTKKAAMESVRVYVSGDNLLTISGISDIFDPETLGGDWGPGKLYPLQRTISIGLNVNF | not soluble
IVGGQECKDGECPWQALLINEENEGFCGGTILSEFYILTAAHCLYQAKRFKVRVGDRNTEQEEGGEAVHEVEVVIKHNRFTKETYDFDIAVLRLKTPITFRMNVAPACLPERDWAESTLMTQKTGIVSGFGRTHEKGRQSTRLKMLEVPYVDRNSCKLSSSFIITQNMFCAGYDTKQEDACQGDSGGPHVTRFKDTYFVTGIVSWGEGCARKGKYGIYTKVTAFLKWIDRSMKTRGLPKAKSHAPEVITSSPLK | soluble
IVMADWLKIRGTLKSWTKLWCVLKPGVLLIYKTQKNGQWVGTVLLNACEIIERPSKKDGFCFKLFHPLEQSIWAVKGPKGEAVGSITQPLPSSYLIIRATSESDGRCWMDALELALK | soluble
IVPTRELENVFLGRCKDYEITRYLDILPRVRSDCSALWKDFFKAFSFKNPCDLDLGSYKDFFTSAQQQLPKNKVMFWSGVYDEAHDYANTGRKYITLEDTLPGYMLNSLVWCGQRANPGFNEKVCPDFKTCPVQARESFWGMASSSYAHSAEGEVTYMVDGSNPKVPAYRPDSFFGKYALPNLTNKVTRVKVIVLHRLGEKIIEKCGAGSLLDLEKLVKAKHFAFDCVENPRAVLFLLCSDNPNARECRLAKRFYRIA | soluble
KASDQFIVYRASIAGPTMIAGYHWFNERGRDILIALPGLALVPQRFDLAKGVLRTFRHYYRHGLMPNVFPDADGEPLYNSIDAALWWVETLGLYLEATQDWEFLAEQFSVVQQIHKAFVGGTHYNIQVDAIDGLISWDARGVALTWMDVVIGANPVTPRHGKPVEINALWYSALCWLSRWAERLSSLELGDPVRLTKQAQRYALQAEKVKTSLQKFWNPQLGYLYDTIEPDDRRNFQIRPNAVLALSLHHCGFSAQQGSQILDLATISLLTPYGLRSLDPGDPEYKGRYEGNQEQRDRAYHQGTVWGWLIGPYIRAWQRFYPEQSLPFDWQPLLDHFLSGACLGSISEIFDGDAPHTPRGAIAQAWSVAEIIRHIQK | not soluble
KEAIVFSQKTTIDQLHNSLNAASKTGNSNEVLQDPHIGDMYGSVTPLRPQVTRMLGKYAKEKEDMLSLRQVLANAERSYNQLMDRAAN | soluble
KEELESIINSSPVIVFLWKYEEGWPIEFVSENVTRLGYEVEDFTSRKILYGNIVYPGDLEKVERELARNIEFGCEDYSSEYRILTKSGEVRWVDERTFIQRDEKGEIRLQGIILDIT | not soluble
KEQILSSEQLARKMMLELGDKKQEHLVAIYMDTQNRIIEQRTIFIGTVRRSVAEPREILHYACKNMATSLIIIHNHPSGSPKPSESDLSFTKKIKRSCDHLGIVCLDHIIVGKNKYYSFREEADI | not soluble
KFVSDVEKEMETLVEAVNKGKNSKKSHSFPPMNRDHRRIIHDLAQVYGLESVSYDSEPKRNVVVTAIR | soluble
KGLAIAADYRNAYRVGGDYYDFIPSNYDRIRSQDDPKLVQCVPWSIVIGDVMGKGVPAGLIMTMTRGMLRAEVLNRHSPAKILEHLNRVMYADLDNSHRFVTLFYSEYDPKTRTLSYSNAAHHPPLLWRAQTQNIEPLDTQGMLIGLDLDSSYEDAKVVLEVGDIILYYTDGFTDAVNSHGDRFDEENLVRVFQNACQNCQTPEAIVQELFTQVEKFTYPKVRGGDDMTLVVVQVQSEAIESHLCQHHDC | not soluble
KIGYGKANPTTRLWVGGLGPNTSLAALAREFDRFGSIRTIDHVKGDSFAYIQYESLDAAQAACAKMRGFPLGGPDRRLRVDFAK | soluble
KILDACCGSRMFWFDKQNDQVLFMDNRKHYEKLESGHIVAVNPNIVADFRKMPFDDNSFYHVVFDPPHLLRAGSNSWLAKKYGKLNEQTWKEDIQKGFSECMRVLKPNGTLVFKWNEDQIKLSEILSIIDYEPLYGNKRAKTHWLVFMKESEENESNG | soluble
KKAITCGEKEKQDLIKSLAMLKDGFRTDRGSHSDLWSSSSSLESSSFPLPKQYLDVSSQTDISGSFGINSNNQLAEKVRLRLRYEEAKRRIANLKIQLAKLDSEAWPGVLDSERDRLILINEKEELLKEMRFISPRKWTQGEVEQLEMARKRLEKDLQAARDTQSKALTERLKLNSKRNQLVRELEEATRQVATLHSQLKSLSSSMQSLSSGSSPGSLTSSRGSLVASSLDSSTSASFTDLYYDPFEQLDSELQSKVEFLLLEGATGFRPSGCITTIHEDEVAKTQKAEGGGRLQALRSLSGTPKSMTSLSPRSSLSSPSPPCSPLMADPLLAGDAFLNSLEFEDPELSATLCELSLGNSAQERYRLEEPGTEGKQLGQAVNTAQGCGLKVACVSAAVSDESVAGDSGVYEASVQRLGASEAAAFDSDESEAVGATRIQIALKYDEKNKQFAILIIQLSNLSALLQQQDQKVNIRVAVLPCSESTTCLFRTRPLDASDTLVFNEVFWVSMSYPALHQKTLRVDVCTTDRSHLEECLGGAQISLAEVCRSGERSTRWYNLLSYKYLKKQSRELKPVGVMAPASGPASTDAVSALLEQTAVELEKRQEGRSSTQTLEDSWRYEETSENEAVAEEEEEEVEEEEGEEDVFTEKASPDMDGYPALKVDKETNTETPAPSPTVVRPKDRRVGTPSQGPFLRGSTIIRSKTFSPGPQSQYVCRLNRSDSDSSTLSKKPPFVRNSLERRSVRMKRPSSVKSLRSERLIRTSLDLELDLQATRTWHSQLTQEISVLKELKEQLEQAKSHGEKELPQWLREDERFRLLLRMLEKRMDRAEHKGELQTDKMMRAAAKDVHRLRGQSCKEPPEVQSFREKMAFFTRPRMNIPALSADDV | soluble
KKPDTLWVNKRVVKCPEEVAQQLAVEAGSDVFLLKRIRYVDEEAVSIEESWVPAHLIHDVDAIGISLYDYFRSQHIYPQRTRSRVSARMPDAEFQSHIQLDSKIPVLVIKQVALDQQQRPIEYSISHCR | not soluble
KLKPYNSEKILKYAEEVKSLYEKQSEENQEAYLQSIAKLGYEIYIVDDQKNGKRIGNAFRKTSISDDTVHKVLQGETFNGVSTYPTRLFITGFFDNELINSVGVPVKHGDKQYALFIRPDIQNQFGEMR | not soluble
KLLAITSCPNGIAHTYMAAENLQKAADRLGVSIKVETQGGIGVENKLTEEEIREADAIIIAADRSVNKDRFIGKKLLSVGVQDGIRKPEELIQKALNGDIPVY | soluble
KMFFKVIDTLSDNYEKEMLLLEAEAKEQYYQELEKSSREVRKIKHDLKNMLLAICGKAKKQNEISEEIYKIIKELDESDKKIYTSNVVINTIINHKISQAKKLEIKTDVNIKVSKAIHIDYKDAGILLGNILDNAIEACEKIKKKERWIKIDMLHNKNTLFIEVCNSKGKELTNISKSSKSDAHNHGIGISSIKAITKKYDGYVEFVDKGEEFEVVVNLYGMSF | not soluble
KMPSPYSHKEFVKEIAPTAQKLSKIYGVRSSIIIGQAALDSHFGSTLLASKYHNLFSIEASPGQGAVRLKSHEYKNGRWQEVTNRYLVYESWKESLYDYMAILHGNKIWDKALYTTMMTSSGYKTVARALQAAGFNSDPNYADKLIAVIEENNL | soluble
KPEPTNSSVEVSPDIYQQVRDELKRASVSQAVFARVAFNRTQGLLSEILRKEEDPRTASQSLLVNLRAMQNFLNLPEVERDRIYQDER | soluble
